Test results as given in article PMC7423924, “A fluorogenic cyclic peptide for imaging and quantification of drug-induced apoptosis” (Nature Communications, 2020).
“And” between values parts separate entries of the source, which are not always exact repeats. Equal values may be shown once.

System: neutrophils (myeloid)
Experiment: Flow cytometry staining before and after induction of apoptosis, neutrophils
Type: cell-based, human
Conditions: single replicates, listed as Ann V
Protocol: Fig. 2 Apo-15 binds to apoptotic cells of different origin in multiple environments. a Representative fluorescence confocal microscopy images (from three independent experiments) human apoptotic (yellow arrows) and viable (white arrows) cells from different lineages: BL-2 (lymphoid), neutrophils (myeloid), and primary airway epithelial cells (epithelial). Cells were incubated with Apo-15 (100 nM, green), AF647-Annexin V (5 nM, red), and Hoechst 33342 (7 μM, blue) for 10 min and imaged under a fluorescence confocal microscope (λexc.: 405, 488, 633 nm: λem.: 450, 525, 670 nm). Scale bars: 10 µm. b Divalent cation-independent binding of Apo-15 to apoptotic cells of different origin (top plots: lymphoid cells, bottom plots: myeloid cells). Mixtures of apoptotic (highlighted in green dots) and viable cells (highlighted in black dots) were stained with AF647-Annexin V (25 nM) and Apo-15 (100 nM) in the presence of 2 mM CaCl2 (left) or 2.5 mM EDTA (right). Representative histograms showing Apo-15 binding (x-axis) vs AF647-Annexin V binding (y-axis) acquired on 5L LSR flow cytometer (n = 5). c Cells were sorted on their Apo-15 positivity (green populations in panel b) or negativity (black populations in panel b). Gating strategy in Supplementary Fig. 7. Morphological analysis (four independent images from two independent experiments) of cytocentrifuge preparations of Apo-15-positive and Apo-15-negative cells under brightfield microscopy (scale bar: 10 µm). d Quantification of fluorescence staining of neutrophils (myeloid, n ≥ 5), BL-2 cells (lymphoid, n ≥ 3) and primary airway epithelial cells (epithelial, n = 5) before and after induction of apoptosis and upon treatment with Apo-15 and AF647-Annexin V. Data acquired on 5 L LSR flow cytometer and presented as mean values ± SEM. P values obtained from two-tailed t tests. Source data (in d) are provided as a Source data file. […]
Work with human peripheral blood leukocytes complied with all relevant ethical regulations and informed consent was obtained. […]

B1: Annexin V: fluorescently-labeled (AF647) annexin V, PS-binding protein (protein, UniProt P08758 2-320, looked up)
Annexin A5: AQVLRGTVTDFPGFDERADAETLRKAMKGLGTDEESILTLLTSRSNAQRQEISAAFKTLFGRDLLDDLKSELTGKFEKLIVALMKPSRLYDAYELKHALKGAGTNEKVLTEIIASRTPEELRAIKQVYEEEYGSSLEDDVVGDTSGYYQRMLVVLLQANRDPDAGIDEAQVEQDAQALFQAGELKWGTDEEKFITIFGTRSVSHLRKVFDKYMTISGFQIEETIDRETSGNLEQLLLAVVKSIRSIPAYLAETLYYAMKGAGTDDHTLIRVMVSRSEIDLFNIRKEFRKNFATSLYSMIKGDTSGDYKKALLLLCGEDD
modifications: AF647 label
Neutrophils 0 h, before induction of apoptosis
  Stained cells (flow cytometry): 2.6% and 3.7% and 2.0% and 1.4% and 1.1%
Neutrophils 18 h, EDTA (2.5 mM)
  Stained cells (flow cytometry): 0.0% and 0.5%
Neutrophils after 18 h culture at 37 °C
  Stained cells (flow cytometry): 51.9% and 32% and 59.2% and 56.9% and 54.7% and 56.2% and 68% and 42.1% and 61.5% and 44.8% and 31.8% and 64.6% and 60.9% and 43.7% and 65.3% and 57.6% and 48% and 40.7% and 35.2% and 65.8% and 72.2% and 52.7% and 70.5% and 46.6%
